# According to the RNAGym collection of RNA variant scans (doi:10.1073/pnas.2313332121):
# Fewer inactive variants are shown than the library holds.
# B1: TPR 5TU (parent)
# chain: GGAUCUUCUCGAUCUAACAAAAAAGACAAAUCUGCCACAAAGCUUGAGAGCAUCUUCGGAUGCAGAGGCGGCAGCCUUCGGUGGCGCGAUAGCGCCAACGUUCUCAACUAUGACACGCAAAACGCGUGCUCCGUUGAAUGGAGUUUAUCAUG
# Variants of: B1
# Experiment: polymerase ribozyme fitness, log enrichment relative to wild type (log ratio); higher = more active; in vitro selection for triplet polymerase activity
# Outline: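 Fitness compares each genotype's enrichment to that of the wild type on a logarithmic scale, averaging replicates with inverse-variance weights. The logarithm is base 2. Enrichment came from Illumina sequencing of input and output libraries after one triplicate round of in vitro selection, which included frozen incubation at −7 °C, of PCR-built, transcribed mutant libraries of each subunit of a heterodimeric triplet polymerase ribozyme. Only genotypes with ≥10 input reads and ≥1 read per output were kept.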
row,Variant,polymerase ribozyme fitness (log ratio)
1,GGUUGUUCUCGAUCUAAUAAAAAAGACAAAACUGCCACAAAGCUUGAGAGCAUCUUCGGAUGCAGAGGCGGCAGCUUUCGGUGGCGCGAUAGCUCCAACGUUCUCAACUAUGACACGCAAAACGCGUGCUCCGUUGAAUGGAGUUUAUCAUG [A3U C5G C18U U31A C76U G94U],-1.46
2,GGUUCUUCUCGAUCUAACAAAAAAGACCAAUCUGCCACAAAGCUUGAGAGCAUCGGCGGAUGGAGAGGCGGCAGCCUUCGGUGGCCCGAUCGCGCCAACGUUCUCAACUAUGACACGCAAAACGCGUGCUCCGUUGAAUGGAGUUUAUCAUG [A3U A28C U55G U56G C63G G86C A91C],≤ -4.2
3,GGUUAUUCUCGAUCUAACAAAAAAGACAAUUCUGCCACUAAGCUUGAGUGCAUCUUCGGAUGCAGAGGCGGCAGCCUUCGGUGGCGCGAUAGCGCCAAUGUUCUCAACUAUGACACGCAAAACACGUGCUCCGUUGAAUGGAGUUUAUCAUG [A3U C5A A30U A39U A49U C99U G124A],≤ -4.2
4,GGUUCUUCUCGAUCUAACAAAAAAGACAAAUCUGCCACAAAGCUUGAGAGCGUCUUCGGAUGCAGAGGCGGCAGCCUUCGGUGGCGCGAUAGCGCGAACGUUCUCAACUAUGACACGCAAAACGCGUGCUUCGUUGAAUGGAGUUUAUCAUG [A3U A52G C96G C131U],-0.0465
5,GGUUCUUCUCGAUCUAACAAAAAAGACACAUCUGCCACAAAGCUUGAGAGCAUCUUCGGACGCAGAGGCGGCAGCCUUCGGUGGCGCGAUAGCGCCAACGUUCUCAACUAUGACACGCAAAACGCGUGCUCCGUUGAAUGGAGUUUAUCAUG [A3U A29C U61C],≤ -4.2
6,GGUUCUUAUCGAUCUAAUAAAAAAGACAAAUCUGCCACAAAGCUUGCGUGCAUCUUCGGAUGCAGAGGCGGCAGCCUUCGGUGGCGCGAUAGUGCCAACGUGCUCAGCUAUGACACGCAAAACGCGUGCUCCUUUGAAUGGAGUUUAUCAUG [A3U C8A C18U A47C A49U C93U U102G A107G G133U],≤ -4.2
7,GGUUCUUCUCGAUCUAACAAAAAAGACAAGUCUGGCACUAAGCUUGAGAGCAUCUUCGACUGCAGAGGCGGCAGCCUUCGGUGGCGUGAUAGCGCCAACGUUCUCAACUAUGACACGCAAAACGCGUGCUCCGAUGAAUGGAGUUUAUCAUG [A3U A30G C35G A39U G59A A60C C87U U134A],≤ -4.2
8,GGUUCUUCUCGAUCUAACAAAAAAGACAAAUCUGCCUCAAAGCUUGAGAGCAUCUUCGGAUGCAGAGGCGGCAGCCUUCGGUGGCGCGAUAGCGCUAACGUUCUCAACUAUGACACGGAAAACGCGUGCUCCGUUGAAUGGAGUUUAUCAUG [A3U A37U C96U C118G],-3.38
9,GGUUGUCCUCGAUCUAACAAAAAAGACAACUCUGCUACAAAGCUUGAGAGCAUCAUCGGGUGCAGAGGCGGCAGUCUUCGGUGGCGGGAUAGCGCCAACGAUCUCAACUAUGACACGCCAAAGGCGUGCUCCGUUGAAUGGAUUUUAUCAUG [A3U C5G U7C A30C C36U U55A A60G C75U C87G U101A A119C C123G G143U],≤ -4.2
10,GGUUCUUCUCGAUCUAACAAAAAAGACAAAUCUGCCACAAAGCUUGAGAGCAUCUUCGGGUGCAGAGGCCGCAGCCUUCCGUGGCACGAUAGCGCCAACGUUCUCAACUAUGACACGCAAAACGCGUGCUCCGUGGAAUGGAGAUUAUCAUG [A3U A60G G70C G80C G86A U135G U144A],≤ -4.2
11,GGUUCUUCUCGAUCUAACAAAACAGACAAAUCUGCCACAAAGCUUGAGAGCAUCUUCGGAUGCAGAGGCGGCAGCCUUCGGUGGCGCGAUAGCGCCAACGUUCUCAACUAUGACACGCAAAACGCGUGCUCCGUUGAAUGGAGUUUAUCAUG [A3U A23C],-3.76
12,GGUUCUUAUCGAUCUAGCAAAAAAGACAAAUCUGCCACAAAGCUUGAGAGCAUCUACGAAUGCAGAGGCGGCAGCCUUCGGUGGAGCGAUAGCGCCAACGUUCUCAACUAUGACACGCAGAACGCGUGCUCCGUUGAAUGGAGUUUAUCAUG [A3U C8A A17G U56A G59A C85A A120G],≤ -4.2
13,GGUUCUUCUCGAUCUAACAAAAUAGACAAAUCUGCCACAAAGCUUGAGAGCAUCUUCGGAUGCAGAGGCGGCAGCCUUCGGUGGCGCGAUAGCGCUAACGUUCUCAACUAUGACACGCAAAACGCGUGCUCCGUUGAAUGGAGUUUAUCAUG [A3U A23U C96U],≤ -4.2
14,GGUUCUUCUCGAUCUAACAAAAAAGACAAAUCUGCCACAAAGCUUGCGAGCAUCUUCGGAUGCAGAGGCGGCAGCCUUCGGUGGCGCGAUAGCGCCAACGUUCUUAACUAUGACACGCACAACACGUGCUCCGUUGAAUGGAGUUUAUCAUG [A3U A47C C105U A120C G124A],-1.78
15,GGUUCUUCUUGAUCUAACAAAAAAGACAAAUCUGCCACAAAGCUUGAGAGCAUCUUCGGAAGCAACGGCGGCAGCCUUCGGUGGCGCGAUAGCGCCAACGUUCUCAACUAUGACACGCAAAACGCGUGCUCCGUUGAAUGGAGUUUAUCAUG [A3U C10U U61A G65A A66C],≤ -4.2
16,GGUUCUUCUCGAUCUAACAAAAAAGACAAGUCUGCCACAAAGCUUGAGAGCAUCUUCGGAUGCAGAGGCGGCAGCCUUCGGUGGCGCGAUAGCGCCAACGUUCCAAACUAUGAGGCGCAAAGCGCGUGAUCCGUUGAAUGGAGUUUAUCAUG [A3U A30G U104C C105A C114G A115G A122G C129A],≤ -4.2
17,GGUUAUUCUCGAUCCAACGAAAAAGACAAAUCUGCCACAAAGCUUGAGAGCAUCUUGGGAUGCAGAGGCGGCAGCCUUCGGUGGCGCGAUAGCGCCAACGUUCUCAACUAUGACACGGAAAACGCGUGCUCCGUUAAAUGCCGUUUAUCAUG [A3U C5A U15C A19G C57G C118G G136A G141C A142C],≤ -4.2
18,GGUUCUUCUCGAUCUAACAAAAAAGACCAAUCUGCCACAAAGCUUGAGAGCAUCUUCGGAUGUAGAGGCGGCAGCCUUCGGUGGUGCGAUAGCGCCAACGUUCUCAACUAUGACACGCAAAACGCGUGCUCCGUUGAAUGGCGUUUAUCAUU [A3U A28C C63U C85U A142C G152U],-3.91
19,GGUUCUUCUUGAUCUAACAAAAAAGACAAAUCUGCCACAAAGCUUGAGAGCAUCUACGGAUGCAGAGGCGGCAGCCUUCGGUGGCGCGAUAGCGCUAACGUUCUCAACUAUGACAUGCAAAACGCGUGCUCCGUUGAAUGGAAUUUAUCAUG [A3U C10U U56A C96U C116U G143A],-3.56
